Data on three molecules can be found in patent US20180237511A1 (Sanofi, published 2018).

Where two headings read alike, the source gives them in different places.

For experiment [1], the target named is T1, human beta-dystroglycan extracellular domain (soluble) (human, UniProt Q14118 654-749).
T1 construct: extracellular domain; The expression construct of soluble human beta-DG is not described (only the mouse one); also called hBeta-DG; hbeta-DG
T1 sequence (looked up): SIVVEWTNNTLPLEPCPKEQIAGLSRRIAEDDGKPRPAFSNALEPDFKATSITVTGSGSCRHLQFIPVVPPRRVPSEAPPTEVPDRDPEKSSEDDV
Nature of the experiment: sequential SPR (Biacore): antibody immobilised on a CM5 chip, human LG-4/5 and then human beta-DG flowed over. The method, then:
Parental monoclonal antibodies (AS19, C3 and C21) and three bispecific antibodies (AS19×C3 and AS30×C3 in TBTI, and AS30×C3 in CODVIg) were each immobilized onto individual CM5 Series S Biacore chips (GE Healthcare). Human or murine LG-4/5, followed in sequence by human or murine beta-DG, was flown over each chip and binding was assessed.
Parental mAbs to LG-4/5 or beta-DG and biAbs of anti-LG4/5 and beta-DG were captured onto biacore chips, and then flowed with human LG4/5 and human beta-DG sequentially to determine their concurrent bindings to both antigens. […] In contrast, parental monoclonal antibodies were only able to bind to one target, either LG-4/5 (C3 and C21 in FIGS. 6A & 6B) or beta-DG (AS19 in FIGS. 6A & 6B).

Experiment [2] addresses T2, human beta-DG fused to the human hIgG1 Fc antibody region (hbeta-DG-hFc) (human, UniProt Q14118 654-749, limits assumed).
T2 construct: not shown: human IgG1 Fc region
T2 sequence (looked up): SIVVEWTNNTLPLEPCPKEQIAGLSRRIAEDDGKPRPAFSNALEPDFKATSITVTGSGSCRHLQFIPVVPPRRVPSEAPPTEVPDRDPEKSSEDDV
Nature of the experiment: double deck sandwich ELISA: plate coated with human LG-4/5, then biAb, then hbeta-DG-hFc, HRP anti-hFc; a signal needs both bindings at once. The method, then:
(§1) 96-well plates were coated with 50 ng human LG-4/5 and blocked with 5% fetal bovine serum in PBS. Each well was incubated with 1 μg of the generated bispecific antibodies (murine IgG backbone). After 2 hours, wells were washed with PBS and re-incubated with 16 ng to 1 μg per well of human beta-DG fused to the human hIgG1 Fc antibody region (hbeta-DG-hFc). After 2 hours, wells were washed with PBS, incubated with a HRP conjugated anti-hFc secondary antibody for 45 minutes, washed again with PBS, and developed for colorimetric measuring.
(§2) Colorimetric signals could be detected only when hLG-4/5 and hbeta-DG-hFc were both added in the assay (FIG. 7). No signal was detected when parental monoclonal antibodies were used or when hbeta-DG-hFc was omitted. Three bispecific antibodies (biAbs), T1T2, T5T6, and C5C6, had the anticipated signal indicating simultaneous binding to both targets. The parental anti-LG4/5 or anti-beta-DG mAbs, or biAbs without beta-DG-hFc in the 2nd step were all negative in this assay.
In general terms: ELISA stands for enzyme-linked immunosorbent assay.

Experiment [3] deals with T3, murine laminin G-like 4 and 5 domains of laminin-2 (mLG-4/5), soluble (mouse, UniProt Q60675 2725-3118).
T3 construct: range 2725-3118; also called murine LG-4/5; not shown: Avi tag and HPC4 tag left after TEV cleavage of the N-terminal mIgG2a fusion partner
T3 sequence (looked up): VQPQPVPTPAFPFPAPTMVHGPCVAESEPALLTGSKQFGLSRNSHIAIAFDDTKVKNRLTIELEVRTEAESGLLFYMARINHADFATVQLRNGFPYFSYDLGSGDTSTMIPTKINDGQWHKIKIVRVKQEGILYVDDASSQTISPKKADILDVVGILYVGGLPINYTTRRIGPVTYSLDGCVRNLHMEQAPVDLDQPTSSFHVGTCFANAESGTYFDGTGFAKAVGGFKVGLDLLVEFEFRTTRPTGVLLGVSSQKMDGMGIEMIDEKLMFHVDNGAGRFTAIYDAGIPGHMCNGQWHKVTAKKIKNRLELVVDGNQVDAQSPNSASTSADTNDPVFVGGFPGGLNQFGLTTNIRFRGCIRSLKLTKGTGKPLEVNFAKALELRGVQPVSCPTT
Nature of the experiment: SPR (Biacore) kinetics, antibody as ligand on the chip, mLG4/5 monomer in flow, fit 1:1 Binding. A general note: SPR reads the build-up and loss of mass on a sensor chip optically.

For experiment [4], the target named is murine laminin G-like 5 domain of laminin-2 (mLG-5) (mouse) (UniProt Q60675). Nature of the experiment: SPR (Biacore) kinetics; mAb immobilized, mLG-5 in flow.
In experiment [5] the target is T2, human beta-DG fused to the human hIgG1 …. In words: double deck sandwich ELISA: plate coated with human LG-4/5, then mAb, then hbeta-DG-hFc, HRP anti-hFc. Here is the method:
as §1, §2

Experiment [6] concerns the target T4, human laminin G-like 4 and 5 domains of laminin-2 (hLG-4/5), soluble (human, UniProt P24043 2729-3122, biotinylated in the ELISA of Example 6).
T4 construct: range 2729-3122; also called human LG-4/5; hLG4/LG5; not shown: Avi tag and HPC4 tag left after TEV cleavage of the N-terminal mIgG2a fusion partner
T4 sequence (looked up): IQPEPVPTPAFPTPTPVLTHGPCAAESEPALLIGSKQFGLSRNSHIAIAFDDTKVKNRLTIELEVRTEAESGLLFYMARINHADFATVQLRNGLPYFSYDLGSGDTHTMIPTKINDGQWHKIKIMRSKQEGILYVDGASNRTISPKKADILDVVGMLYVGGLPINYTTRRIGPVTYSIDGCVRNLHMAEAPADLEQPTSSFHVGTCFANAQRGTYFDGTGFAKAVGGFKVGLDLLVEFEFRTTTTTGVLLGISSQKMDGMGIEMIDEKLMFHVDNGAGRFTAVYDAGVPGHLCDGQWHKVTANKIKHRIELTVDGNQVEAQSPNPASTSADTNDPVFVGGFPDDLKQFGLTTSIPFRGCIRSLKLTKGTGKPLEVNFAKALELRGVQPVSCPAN
In words: SPR (Biacore) kinetics, antibody as ligand on the chip, hLG4/5 monomer in flow, fit 1:1 Binding.

In experiment [7] the target is T5, human laminin G-like 5 domain of laminin-2 (hLG-5) (human, UniProt P24043 2936-3122, soluble biotinylated protein (Avi tag)).
T5 construct: The construct used for the crystal structure with C21 Fab is not described; the same entry is used; also called human LG-5; human LG5; not shown: N-terminal Avi and HPC4 tags
T5 sequence: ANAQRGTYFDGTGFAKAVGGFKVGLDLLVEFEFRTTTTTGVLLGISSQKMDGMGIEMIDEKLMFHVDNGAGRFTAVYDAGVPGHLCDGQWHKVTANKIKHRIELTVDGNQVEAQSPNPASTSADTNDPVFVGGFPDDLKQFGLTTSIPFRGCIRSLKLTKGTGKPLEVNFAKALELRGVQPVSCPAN
Nature of the experiment: SPR (Biacore) kinetics; mAb immobilized, hLG-5 in flow.

Experiment [8] deals with T4, human laminin G-like 4 and 5 domains of …. Nature of the experiment: SPR (Biacore) kinetics, antibody as ligand on the chip, hLG4/5 monomer in flow, fit 1:1 Binding. This is another data set of the same source.
Experiment [9] deals with T3, murine laminin G-like 4 and 5 domains …. Nature of the experiment: SPR (Biacore) kinetics, antibody as ligand on the chip, mLG4/5 monomer in flow, fit 1:1 Binding. The source holds these as a separate data set.

B1: bispecific antibody T1T2: anti-beta-DG(AS19) x anti-laminin-2(C3), TBTI with (GGGGS)2 linker (bispecific antibody)
heavy: QVQLQQSGPELVKPGASVKMSCKASGFTFTDSVISWVKQRTGQGLEWIGEIYPGSGSIYYNEKFKGKATLTADKSSNTAYMQLRSLTSEDSAVYFCAMRRSYWGQGTLVTVSAGGGGSGGGGSDVMLVESGGDLVKPGGSLKLSCAASGFTFSSYTMSWVRQTPEKRLEWVASISSGGGNTYYPDSVKGRFTISRDNAKNNLYLQMSSLRSEDTALYYCARFDYGSSLDSWGQGTTLTVSS
light: DVLMTQTPLSLPVSLGDQASISCRSSQSIVHSNGNTYLEWYLQKPGQSPKLLIYKVSNRFSGVPDRFSGSGSGTDFTLKISRVEAEDLGVYYCFQGSHVPLTFGAGTKLELKGGGGSGGGGSDIVLTQSPATLSVTPGDSVSLSCRASQSISNNLHWYQQKSHESPRLLIKYASQSISGIPSRFSGSGSGTDFTLSINSVETEDFGMYFCQQSKNWPRTFGGGTKLEIK
notes: also called AS19xC3 in TBTI; biAb (AS19xC3); not shown: IgG1 heavy chain constant region: murine IgG1 (GenBank AAA75163.1) or human IgG1 (Genbank Q569F4); murine IgG backbone i; kappa light chain constant region: murine kappa chain (Genbank BAB33404) or human kappa chain (Genbank Q502W4)
For the molecule B1, the binding result in experiment [1] and in [2] was “binds” in each case.

B2: anti-laminin-2 antibody derived from hybridoma clone C21 (antibody, V domains shown)
VH: EVMLVESGGGLVKPGGSLKLSCAASGFTFSSYTMSWVRQTPEKRLEWVATISSGGDNTYYPDSVKGRFTISRDNAKNNLYLQMSSLRSEDTALYYCARFDYGSSLDCWGQGTTLTVSS
VL: DIVLTQSPATLSVTPGDSVSLSCRASQSISNYLHWYQQKSHESPRLLIKYASQSISGIPSRFSGSGSGTDFTLSINSVETEDFGMYFCQQSKSWPRTFGGGTELEIK
notes: Hybridoma monoclonal antibody (detected with anti-mouse IgG); also called anti-laminin-2(C21)
In general, Kd refers to the concentration at which binding is half-saturated. As a reminder, the koff is a measure of how fast the partners let go of each other. Read a high koff as a short-lived complex. As a reminder, the kon is a measure of how fast the partners come together. A higher kon goes with faster complex formation. Turning to B2, the Kd stood at 3.04 nM in experiment [3], 3.04 nM in experiment [4], 2.8 nM in experiment [6] and 2.8 nM in [7]. In addition, the koff in experiment [3] was found to be 0.00253 s⁻¹; in experiment [4], 0.00253 s⁻¹; in experiment [6], 0.00131 s⁻¹; in experiment [7], 0.00131 s⁻¹. For the same molecule, the kon was found to be 813000 M⁻¹ s⁻¹ in experiment [3], 813000 M⁻¹ s⁻¹ in experiment [4], 467000 M⁻¹ s⁻¹ in experiment [6] and 467000 M⁻¹ s⁻¹ in [7]. Moreover, the binding result in [1] is reported as “no binding”; in experiment [5], “no binding (tested: 1000 ng/ml)”.

B3: anti-laminin-2 antibody derived from hybridoma clone C3 (antibody, V domains shown)
VH: DVMLVESGGDLVKPGGSLKLSCAASGFTFSSYTMSWVRQTPEKRLEWVASISSGGGNTYYPDSVKGRFTISRDNAKNNLYLQMSSLRSEDTALYYCARFDYGSSLDSWGQGTTLTVSS
VL: DIVLTQSPATLSVTPGDSVSLSCRASQSISNNLHWYQQKSHESPRLLIKYASQSISGIPSRFSGSGSGTDFTLSINSVETEDFGMYFCQQSKNWPRTFGGGTKLEIK
notes: Hybridoma monoclonal antibody (detected with anti-mouse IgG); also called C03; anti-laminin-2(C3)
Regarding B3, the binding result in experiment [1] is “no binding”; in experiment [5], “no binding (tested: 1000 ng/ml)”. For the same molecule, the koff in experiment [8] came out at 0.0013 s⁻¹; in experiment [4], 0.00429 s⁻¹; in [9], 0.00429 s⁻¹; in experiment [7] it was 0.0013 s⁻¹. Moreover, the kon in experiment [8] was 488000 M⁻¹ s⁻¹; in [4], 519000 M⁻¹ s⁻¹; in experiment [9], 519000 M⁻¹ s⁻¹; in experiment [7], 488000 M⁻¹ s⁻¹. The Kd in experiment [4] was determined as 8.27 nM; in experiment [7], 2.66 nM.
